Tests used:
Assay in all cases: cell-based or functional assay
[1] = biological target: endogenous wild-type PLB of adult rabbit myocytes (rabbit) (UniProt P61015)
[2] = biological target: endogenous wild-type PLB of cardiac myocytes or SR (species not stated at these places) (Rattus norvegicus (Rat)) (UniProt P61016)
[3] = biological target: endogenous wild-type PLB of rat cardiac myocytes (rat) (UniProt P61016)

UniProt P61015, sequence (P61015 whole entry): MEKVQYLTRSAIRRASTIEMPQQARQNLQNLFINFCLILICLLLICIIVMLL

A decrease in RT50 against the LacZ control [1] of 25%, an increase in +dL/dt against the LacZ control [1] of 115% and an increase of fractional shortening against the LacZ control [1] of 74% were found for PLB double point mutant K3E/R14E in this work. It also gave a decrease in RT50 after plasmid transfection of myocytes [2] of 43%, a half-time for decay (RT50) of the indo 1 Ca2+ transient, neonatal myocytes (LacZ: 0.28 seconds) [2] of 0.2 s and a half-time for decay (RT50) of the indo 1 Ca2+ transient, percent of LacZ [2] of 73%. It also gave a lowering of the EC50 of SR Ca2+ uptake, adult rat myocytes [3] of 36%.
